Results taken from article PMC7049163 (Proceedings of the National Academy of Sciences of the …, 2020).

Molecular target: the molecule itself
Experiment: crystal structure

B1: copper-containing nitrite reductase from Geobacillus thermodenitrificans (enzyme)
chain: ESKNKTAATQQSEPNVIAAHKGVNQAPVPLKMERVGPHDVHIEMTAQITDIEIDKGKIYKAWTFNGQAPGPLVVVNEGDTIHFTLKNMDPVVPHSMDFHAVHASPSKDFIDVMPNKSGTFTYPANKPGVFMYHCGTKPVLQHIANGMHGVIIVKPKNGYPTDKEVDREYVLIQNEWYKYNDMNDFQNGVPSYVVFSSKALKPGDPNTNGDTFTLKEKPLLAKVGEKIRLYINNVGPNEVSSFHVVGTVFDDVYLDGNPNNHLQGMQTVMLPASGGAVVEFTVTRPGTYPIVTHQFNHAQKGAVAMLKVTETGEDDGTETSGH
- stoichiometry N: 3
